Target: Fzd1-mApple
Experiment: quasi-PIE fluorescence cross-correlation spectroscopy (FCCS); live zebrafish embryos co-expressing the EGFP- and mApple-tagged proteins; dorsal cerebellum and midbrain hindbrain boundary; room temperature; FLCS-based statistical filtering of spectral cross talk; apparent Kd

Kd: 313 nM
Substance: Wnt3C80A-EGFP (ligand)
